Experimental data as given in PMC4539346.

target: human IgM (Calbiochem 401108) (human); assay: SPR; IgM amine-coupled to a GLC sensor chip (about 10,000 RU, pH 5), ProteOn XP36; DBL4ζ proteins flowed at 600-18.75 nM, 25 μl/min, 25 °C, 10 mM Tris pH 7.4, 140 mM NaCl, 2 mM CaCl2, 0.005% Tween-20; 1:1 Langmuir kinetic model

Substance | Kd [nM] | koff [s⁻¹] | kon [M⁻¹ s⁻¹]
recombinant TM284var1 DBL4ζ E1663R (his-tagged, E. coli) (domain or fragment) | 115 | 0.0148 | 129000
recombinant TM284var1 DBL4ζ E1663R, E1665R, R1764E, E1779K (his-tagged, E. coli) (domain or fragment) | 41.2 | 0.00254 | 61600
recombinant TM284var1 DBL4ζ E1663R, R1764E (his-tagged, E. coli) (domain or fragment) | 33.2 | 0.00159 | 49400
recombinant TM284var1 DBL4ζ R1764E (his-tagged, E. coli) (domain or fragment) | 41.6 | 0.00189 | 45100
recombinant TM284var1 DBL4ζ wild type (his-tagged, E. coli) (domain or fragment) | 66.2 | 0.0118 | 179000
